Test results published in patent US20040001822A1, “Y1-isolated molecules comprising epitopes containing sulfated moieties, antibodies to such epitopes, and uses thereof” (priority 2000, published 2004).

B1: CONY1: scFv derived from Y1 scFv with the myc tag replaced by lysine, alanine, lysine (KAK), SEQ ID NO: 204 (protein, listed as Homo sapiens)
scFv: MKYLLPTAAAGLLLLAAQPAMAEVQLVESGGGVVRPGGSLRLSCAASGFTFDDYGMSWVRQAPGKGLEWVSGINWNGGSTGYADSVKGRFTISRDNAKNSLYLQMNSLRAEDTAVYYCARMRAPVIWGQGTLVTVSRGGGGSGGGGSGGGGSSELTQDPAVSVALGQTVRITCQGDSLRSYYASWYQQKPGQAPVLVIYGKNNRPSGIPDRFSGSSSGNTASLTITGAQAEDEADYYCNSRDSSGNHVVFGGGTKLTVLGAAAKAK
B2: Y17 scFv: second scFv clone binding platelets and myelogenous leukemia cell lines, SEQ ID NO: 203 (protein, listed as Homo sapiens)
scFv: MKYLLPTAAAGLLLLAAQPAMAEVQLVESGGGVVRPGGSLRLSCAASGFTFDDYGMSWVRQAPGKGLEWVSGINWNGGSTGYADSVKGRFTISRDNAKNSLYLQMNSLRAEDTAVYYCARLTHPYFWGQGTLVTVSRGGGGSGGGGSGGGGSSELTQDPAVSVALGQTVRITCQGDSLRSYYASWYQQKPGQAPVLVIYGKNNRPSGIPDRFSGSSSGNTASLTITGAQAEDEADYYCNSRDSSGNHVVFGGGTKLTVLGAAAEQKLISEEDLNGAA

Experiments:
MOLT-4 cells = experiment: T-ALL (MOLT4) model in SCID mice; type: in vivo
Method: The in vivo mouse model for T-ALL uses SCID mice (Jackson Laboratories) injected with MOLT4 cells derived from a T cell leukemia patient.
In one experiment, SCID mice were pretreated with 100 mg/kg Cytoxan (CTX, Cycloposphamid for injection, Mead Johnson). Eleven days after CTX injection, MOLT-4 cell were injected intravenously into the tail vein. Control mice were injected with PBS alone. One week post-MOLT-4 injection mice were injected with CONY1-Doxorubicin, which is a conjugate between scFv CON Y1 polypeptide, having KAK amino acid residues at its carboxy end and doxorubicin via a short organic linker; CONY1, which is a scFv antibody fragment derived from Y1 scFv in which the DNA sequences encoding the myc tag of Y1 were deleted and replaced with a DNA sequence encoding the amino acids lysine, alanine, lysine (KAK); or free Doxorubicin. The mice were injected three times per week for three weeks. […] (Table M).
Mice started to die 32 days post cell inoculation, and the surviving mice were sacrificed at this time. Bone marrow cells were analyzed by flow cytometry using anti-human CD44-FITC and Y1-Biotin/SAV-PE. Blood samples from several animals were monitored for platelet and white blood cell count. Livers were weighted and examined for tumor appearance. Other organs were also examined for tumor appearance.
In a second experiment, SCID mice were i.v. injected with 2×10^7 MOLT-4 cells/mouse, 5 days post treatment with cyclophosphamide. Anti-cancer agents or PBS (negative control animals) were injected i.v. three times/week from day 5 post MOLT-4 cells injection and onward. On day 35, blood was drawn from the animals, the animals were sacrificed, and their livers were excised and weighed. In the untreated, PBS-treated MOLT-4 cell-bearing animals, the liver presented with a very massive tumor growth, and its size was increased 2-3-fold relative to PBS control uninfected animals. In this experiment, there were five treatment groups:
In parallel, portions of liver tissue were taken for histology and cell harvesting for FACS analysis. The survival rate of another group of treated animals was recorded relative to that of control untreated mice.
In a third experiment, using the identical SCID/MOLT-4 protocol, there were 6 groups: […]

KG-1 cells = experiment: AML KG-1 model in NOD/SCID mice; type: in vivo
Method: The in vivo mouse model for human AML uses SCID/NOD mice (Jackson Laboratories) inoculated with KG-1 cells derived from a human AML cell line.
In a first experiment, NOD/SCID mice were pretreated with 100 mg/kg CYTOXAN®. Four days post CYTOXAN® injection, KG-1 cells were injected intravenously into the tail vein of six groups of mice. (Table N, Groups 2 and 5-9). One group of mice (Table N, Group 1) was injected with PBS alone (control).
Beginning 19 days post KG-1 injection mice were treated with: CONY1, Doxorubicin, CONY1-Doxorubicin conjugate, or Mylotarg®. (Mylotarg® is a monoclonal antibody (anti CD33) conjugated chemically to calcheamicin recently approved by the FDA for treatment of AML patients age 60 and over in a first relapse.) Mice were treated once or three times per week for three weeks. […]
Mice were sacrificed from 60 to 65 days post cell injection. Bone marrow samples were analyzed by flow cytometry using mouse anti human CD34-FITC (IQP 144F) (or anti CD44-FITC (MCA89F, Serotec)) and Y1-Biotin/SAV-PE. […]
An additional experiment was performed in which SCID-NOD mice were i.v. injected with 3×10^4 MOLT-4 cells/mouse 5 days post treatment with cyclophosphamide. […] Bone marrow was extracted and analyzed by FACS analysis using a commercially available antiCD44 antibody for the detection of MOLT-4 cells in the mice bone marrow cell population.

[1] = Pharmacokinetics of 125I-CONY1 after intravenous injection; type: in vivo, Male Balb-C mice
Method: Two to four mice were used per time point. […] Organ/tissue total and specific radioactivity values were calculated.

[2] = target: T1, GPIb (glycocalicin) derived from platelets (Homo sapiens, UniProt P07359); experiment: ELISA to glycocalicin, monomer versus cysteine dimer; type: binding
T1 construct: glycocalicin (soluble, extracellular fragment of GPIbα); from tissue; host or cells: human platelets
Method: An ELISA assay was performed to ascertain the differences in binding between the monomer (the Y1 scFv-also known as Y1-kak) and the dimer Y1-cys-kak (the cysteine dimer) for antigen GPIb (glycocalicin) derived from platelets. A polyclonal anti single chain antibody and/or a novel polyclonal anti-VL (derived from rabbits) and anti-rabbit HRP, were used to detect the binding to GPIb. […] For instance, to reach 0.8 OD units 12.8 μg/ml of monomer was used compared to only 0.1 μg/ml of dimer.
100 ml of purified glycocalicin was incubated in a 96 flat well maxisorp plates, overnight at 4 degrees celsius. The plate was washed with PBST (PBS+0.05% tween) 3 times, then […] of PBST-milk (PBST+2% Non fat milk), for 1 hr at room temperature. The plate was washed with PBST, and the monomer or dimer (100 ml) was added in PBST-milk at different concentrations for 1 hr at room temp. Then the plate was washed and anti-VL polyclonal (derived from immunized rabbits with VL derived from Y1) (1:100 diluted in PBST-milk) was added for an hour. The plate was washed and anti-rabbit HRP was added for an additional hour. The plate was washed 5 times and 100 μl TMB substrate was added for approximately 15 minutes then 100 μl of 0.5 H2SO4 was added to stop the reaction. The optical density of the plate was measured at 450 nm in an ELISA reader.

washed platelets = experiment: Ristocetin-induced agglutination of washed platelets after preincubation with scFv; type: cell-based, human
Method: Aggregation is determined in PRP due to the presence of thrombotic agents, while agglutination is determined in washed platelets. The effect of Y1 (scFv) on agglutination of washed platelets was tested at various concentrations of Y1. Platelets were pre-incubated with Y1 scFv, Y17 scFv, Y16-scFv, or a control TM-1 scFv for 4 min at 37° C. before being exposed to ristocetin, an inducer of platelet agglutination and aggregation.
Platelet concentrate in acid-citrate-dextrose (ACD) was obtained from a blood bank, platelets were isolated, washed once in buffer containing ACD and saline in a ratio of 1:7. The platelets were centrifuged at 800 g for 10 min after each wash and were resuspended in Tyrodes solution (2 mM MgCl2, 137 mM NaCl, 2.68 mM KCl, 3 mM NaH2PO4, 0.1% glucose, 5 mM Hepes and 0.35% albumin, pH 7.35) and count the number of cells.
(§1) For platelet aggregation studies, platelet rich plasma (PRP) and washed platelets were stirred at 500 rpm at 37° C. in whole blood Lumiaggregometer (Chronolog, Havertown,Pa.). The difference in light transmission through the platelet suspension and suspending medium was taken as 100% aggregation. The effect of Y1 on platelet aggregation was evaluated by addition of different concentration of Y1 before the addition of agonist, and the effect was recorded for four minutes.
The effect of Y17-scFv on vWF-dependent agglutination of platelets was tested at different concentrations of Y17.

[3] = system: platelet-rich-plasma (PRP); experiment: Ristocetin-induced aggregation of platelet-rich plasma after preincubation with scFv; type: cell-based, human; conditions: scFv 38 μg/ml
Method: The effect of Y1 (scfv) on aggregation of platelet-rich-plasma (PRP) was tested at various concentrations of Y1. PRP was pre-incubated with Y1 scfv, Y17 scfv, or a control sTM-1cFv for 4 min at 37° C. before being exposed to ristocetin, an inducer of platelet agglutination and aggregation. A reversible inhibitory effect was observed when scFv was added to PRP prior to the addition of ristocetin, and it was dose dependent.
Blood was collected into a tube containing 3.8% sodium citrate. Platelet-rich plasma was prepared by centrifugation at 250×g for 10 minutes.
as §1

[4] = scFv 25 μg/ml, ristocetin = 100% agglutination

Row | Molecule | liver weight versus free Doxorubicin or untreated (MOLT-4 cells; first experiment, three times per week for three weeks, sacrifice 32 days post cell inoculation) | survival (MOLT-4 cells; mice which received continued treatment) | liver weights / tumor growth in the liver (MOLT-4 cells; second experiment, day 35, i.v. three times/week, CONY1 and conjugate 75 μg/mouse, Doxorubicin 0.1 mg/kg) | tumor growth (based on liver weights) (MOLT-4 cells; third experiment, CONY1 scFv 75 μg/mouse, Y1-IgG 5 μg/mouse) | prevalence of cancer cells in the bone marrow (KG-1 cells; additional experiment, day 60, CONY1 scFv 75 μg/mouse three times/week, Mylotarg 7 μg/mouse once a week) | percentage of KG-1 cells in bone marrow (KG-1 cells; first experiment, KG-1 cells incubated in vitro with scFv before injection (groups 3 and 4)) | half-life of blood clearance, first compartment ([1]; 15 μg per mouse i.v., plasma TCA precipitable radioactivity, two-compartment model) [min] | half-life of blood clearance, second compartment ([1]; 15 μg per mouse i.v., two-compartment model) [min] | distribution between plasma and erythrocytes ([1]; blood versus plasma radioactivity) | specific uptake in body tissues ([1]; liver, lung, kidney, spleen, bone marrow, 5 minutes to 24 hours) | concentration to reach 0.8 OD units [2] [µg/mL] | inhibition of vWF-dependent platelet agglutination induced by ristocetin (washed platelets; final concentration of 10, 25 or 50 μg/ml) | % agglutination (washed platelets; [4]) [%] | % inhibition (washed platelets; [4]) [%] | % aggregation [3] [%] | % inhibition ([3]; listed as Y17)
1 | B1 | weighted significantly less | prolonged | markedly inhibited tumor growth in the liver | inhibited tumor growth | had no effect | significantly lower percentage | 35 | 190 | practically all of the CONY-1 resided in the plasma and did not adhere to erythrocytes | no major specific uptake | 12.8 |  |  |  |  | 
2 | B2 |  |  |  |  |  |  |  |  |  |  |  | did not inhibit | 85 | 15 | 100 | did not inhibit
